From PMC12646051 come the findings set out here.

Experiment [1] deals with mouse Slo1 (mSlo1) α-subunit (mouse) (UniProt Q08460).
Experiment [2] has as its target β3-Gρ (full-length human BK β3a subunit with C-terminal eGFP-ρ1D4) (human). The experiment is described as follows: pull-down + SEC; plasmid weight ratio 1:0.2:1.8 (TR2).
Experiment [3] deals with hSlo1EM-TS (modified human Slo1 BK α subunit with a C-terminal twin-strep tag) (human) (UniProt Q12791). Briefly: pull-down + SEC; TR1 (1:1:1); three-step affinity purification: streptactin XT (Slo1), then anti-FLAG M2 resin (β2) and anti-ρ1D4 resin (β3) one after the other, in either order; eluates, input and flow-through read by dual-colour FSEC.
The target of experiment [4] is β3-Gρ (full-length human BK β3a subunit with C-terminal eGFP-ρ1D4) (human). Described as above.
Experiment [5] deals with hSlo1EM-TS (modified human Slo1 BK α subunit with a C-terminal twin-strep tag) (human) (UniProt Q12791). Briefly: pull-down + SEC; as a1 but plasmid weight ratio 1:0.2:1.8 (TR2).
Experiment [6] has the same target. The experiment is described as follows: pull-down + SEC; HEK293F co-transfected with hSlo1EM-TS, β2-RF and β3-Gρ at plasmid weight ratio 1:1:1 (TR1); digitonin extract; Slo1 held on streptactin XT resin, eluted with 50 mM biotin; eluate read by dual-colour FSEC (Superose 6 Increase; eGFP and mCherry).
Experiment [7] has the same target. The experiment is described as follows: pull-down + SEC; as a3 but plasmid weight ratio 1:0.2:1.8 (TR2).
The target of experiment [8] is T1, human β2 (hβ2) (human) (UniProt Q9Y691).
T1 sequence: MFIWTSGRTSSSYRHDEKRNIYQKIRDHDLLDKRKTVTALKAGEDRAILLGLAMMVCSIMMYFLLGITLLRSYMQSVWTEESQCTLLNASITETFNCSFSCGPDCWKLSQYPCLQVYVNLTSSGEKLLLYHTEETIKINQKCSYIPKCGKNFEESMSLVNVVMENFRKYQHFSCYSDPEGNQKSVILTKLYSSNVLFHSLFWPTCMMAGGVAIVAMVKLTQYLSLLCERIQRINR

Experiment [9] concerns the target T1, human β2 (hβ2) (human). This is another data set of the same source.

Sequence of hSlo1EM-TS (modified human Slo1 BK α subunit with a C-terminal twin-strep tag) (human) (Q12791 whole entry): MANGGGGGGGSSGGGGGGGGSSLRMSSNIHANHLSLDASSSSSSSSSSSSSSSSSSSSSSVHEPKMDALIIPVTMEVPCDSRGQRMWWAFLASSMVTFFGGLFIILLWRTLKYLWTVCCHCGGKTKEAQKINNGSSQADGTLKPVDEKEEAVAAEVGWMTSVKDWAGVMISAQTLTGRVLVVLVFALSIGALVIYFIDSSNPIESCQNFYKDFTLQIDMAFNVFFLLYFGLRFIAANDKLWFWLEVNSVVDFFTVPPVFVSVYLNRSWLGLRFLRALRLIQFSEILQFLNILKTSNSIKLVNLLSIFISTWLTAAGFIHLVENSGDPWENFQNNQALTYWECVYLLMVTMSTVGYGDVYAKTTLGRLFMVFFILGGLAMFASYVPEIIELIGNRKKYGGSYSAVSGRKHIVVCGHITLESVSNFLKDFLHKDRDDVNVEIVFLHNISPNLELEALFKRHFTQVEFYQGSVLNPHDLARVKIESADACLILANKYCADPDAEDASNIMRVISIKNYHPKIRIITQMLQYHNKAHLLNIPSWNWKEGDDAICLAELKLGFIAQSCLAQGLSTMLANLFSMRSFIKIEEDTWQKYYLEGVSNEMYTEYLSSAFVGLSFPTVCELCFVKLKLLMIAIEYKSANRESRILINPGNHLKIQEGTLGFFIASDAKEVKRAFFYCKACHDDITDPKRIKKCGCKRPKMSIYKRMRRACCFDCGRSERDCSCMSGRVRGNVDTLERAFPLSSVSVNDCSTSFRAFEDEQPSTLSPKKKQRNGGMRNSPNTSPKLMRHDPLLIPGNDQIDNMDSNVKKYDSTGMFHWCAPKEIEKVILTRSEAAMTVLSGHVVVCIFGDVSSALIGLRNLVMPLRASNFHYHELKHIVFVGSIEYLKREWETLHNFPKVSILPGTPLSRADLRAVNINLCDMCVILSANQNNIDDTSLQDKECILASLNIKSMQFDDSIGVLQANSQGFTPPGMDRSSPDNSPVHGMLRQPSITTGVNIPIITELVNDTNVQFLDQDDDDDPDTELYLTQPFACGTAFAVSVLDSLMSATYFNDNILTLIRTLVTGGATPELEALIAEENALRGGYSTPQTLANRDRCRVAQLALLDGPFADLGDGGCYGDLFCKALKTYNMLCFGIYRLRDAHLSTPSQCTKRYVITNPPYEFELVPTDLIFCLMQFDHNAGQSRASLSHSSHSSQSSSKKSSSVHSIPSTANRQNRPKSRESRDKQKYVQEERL
Sequence of mouse Slo1 (mSlo1) α-subunit (mouse) (Q08460 whole entry): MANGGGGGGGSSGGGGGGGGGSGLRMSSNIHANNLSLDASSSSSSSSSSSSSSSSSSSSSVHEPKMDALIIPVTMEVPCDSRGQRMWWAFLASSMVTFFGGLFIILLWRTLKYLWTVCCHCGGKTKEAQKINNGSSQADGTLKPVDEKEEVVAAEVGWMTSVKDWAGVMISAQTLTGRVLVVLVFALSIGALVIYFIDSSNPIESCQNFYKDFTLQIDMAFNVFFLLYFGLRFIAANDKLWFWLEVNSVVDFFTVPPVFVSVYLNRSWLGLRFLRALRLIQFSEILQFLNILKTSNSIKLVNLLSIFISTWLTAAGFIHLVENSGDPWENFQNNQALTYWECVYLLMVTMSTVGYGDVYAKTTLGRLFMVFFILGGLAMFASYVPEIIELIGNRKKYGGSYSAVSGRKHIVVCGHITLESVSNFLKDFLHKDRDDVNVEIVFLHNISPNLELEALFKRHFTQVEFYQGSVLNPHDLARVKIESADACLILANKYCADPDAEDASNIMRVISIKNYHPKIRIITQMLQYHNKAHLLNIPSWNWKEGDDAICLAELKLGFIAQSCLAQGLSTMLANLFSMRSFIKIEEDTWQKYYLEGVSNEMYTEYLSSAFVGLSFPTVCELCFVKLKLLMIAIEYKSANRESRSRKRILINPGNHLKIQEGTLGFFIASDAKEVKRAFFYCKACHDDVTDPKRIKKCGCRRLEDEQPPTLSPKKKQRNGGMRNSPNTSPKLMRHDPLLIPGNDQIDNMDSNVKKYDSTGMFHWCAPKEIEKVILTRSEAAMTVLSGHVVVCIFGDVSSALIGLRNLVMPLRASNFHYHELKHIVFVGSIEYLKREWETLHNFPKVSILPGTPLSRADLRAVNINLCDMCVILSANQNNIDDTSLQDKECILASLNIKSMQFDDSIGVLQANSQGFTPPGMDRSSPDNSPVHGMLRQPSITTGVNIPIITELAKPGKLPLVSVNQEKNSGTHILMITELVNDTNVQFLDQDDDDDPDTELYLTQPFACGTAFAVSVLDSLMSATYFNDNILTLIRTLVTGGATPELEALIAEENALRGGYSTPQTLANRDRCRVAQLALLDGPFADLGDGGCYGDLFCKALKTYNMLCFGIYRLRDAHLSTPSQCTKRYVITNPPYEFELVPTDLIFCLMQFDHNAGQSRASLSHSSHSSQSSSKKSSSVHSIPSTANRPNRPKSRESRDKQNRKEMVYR

B1: human β2 (hβ2) (natural protein)
chain: MFIWTSGRTSSSYRHDEKRNIYQKIRDHDLLDKRKTVTALKAGEDRAILLGLAMMVCSIMMYFLLGITLLRSYMQSVWTEESQCTLLNASITETFNCSFSCGPDCWKLSQYPCLQVYVNLTSSGEKLLLYHTEETIKINQKCSYIPKCGKNFEESMSLVNVVMENFRKYQHFSCYSDPEGNQKSVILTKLYSSNVLFHSLFWPTCMMAGGVAIVAMVKLTQYLSLLCERIQRINR
In turn, B1 yielded a time course of trypsin removal of inactivation of α+β2 currents in excised oocyte patches, described by I(t)=(1-exp(-t/τ))^4; β subunits per channel (β subunits per channel) in [1] of 4.

B2: β2-RF (full-length human BK β2 subunit with C-terminal mCherry-FLAG) (natural protein)
chain: MFIWTSGRTSSSYRHDEKRNIYQKIRDHDLLDKRKTVTALKAGEDRAILLGLAMMVCSIMMYFLLGITLLRSYMQSVWTEESQCTLLNASITETFNCSFSCGPDCWKLSQYPCLQVYVNLTSSGEKLLLYHTEETIKINQKCSYIPKCGKNFEESMSLVNVVMENFRKYQHFSCYSDPEGNQKSVILTKLYSSNVLFHSLFWPTCMMAGGVAIVAMVKLTQYLSLLCERIQRINR
As to B2, the figures for the percent of Slo1–β3 complexes that are ternary (hold β2 too) in experiment [2] and in [4] were 37% and 49%, respectively. Further, the stoichiometry N (β2 per 4 Slo1) in experiment [3] was found to be 2.8; in experiment [7], 1.9. Further, the molar ratio of β2-RF to β3-Gρ affiliated with Slo1 in experiment [5] came out at 1.08 mol/mol; in experiment [6] it was 7.32 mol/mol.

B3: mouse β3a (mβ3a) (natural protein)
chain: MQPFSIPVQITLQGGRRRQGRTALPASGKINGDPLKVHPKLPSSAGEDRAMLLGVAMMASSVLMFFLLGTTVLKPFMLRSPREESNCTTVHTHIVDDGLDFSFTCEGSCQDHGRSPCLQVFVNLSHSGQKVLLHYDDEAIRTNPKCFYTPKCHGDRDDLLNSVLDIKEFFDHNNGTFPCFYSPDGPLGVVLRKSGHKVVFHCLFWPLLTLLGGALIVGLVRLTQHLSFQCEQYSTVVRA
Consider B3, for which, in the experiment with human β2 (hβ2) (human) [8], the global fit of the trypsin digestion time courses of BK currents (mSlo1 with β2:β3a injection ratios 1:4 to 1:24, β2 alone, β3a alone): random mixing model against segregated model (fold lower sum of squares) was 2.5. The single-channel recordings from oocytes with BK α and 1:8 β2:β3a: of 16 patches with β3a-type tail openings, those that also show β2-like recovery from inactivation without reopening (of 16 patches) with human β2 (hβ2) (human) [9] was determined as 14. The time course of trypsin removal of inactivation of α+β3a currents in excised oocyte patches, described by I(t)=(1-exp(-t/τ))^4; β subunits per channel (β subunits per channel) in experiment [1] stood at 4.
